The results in this text go back to paper PMC2173631 (The Journal of Cell Biology, 2003).

As a reminder, the IC50 is the concentration needed to halve the response being measured. As a reminder, the Km is the substrate concentration at which the rate is half of its maximum.

The target in one data set is T1, DAGLβ (Mus musculus, UniProt Q91WC9).
T1 sequence (Q91WC9 1-669): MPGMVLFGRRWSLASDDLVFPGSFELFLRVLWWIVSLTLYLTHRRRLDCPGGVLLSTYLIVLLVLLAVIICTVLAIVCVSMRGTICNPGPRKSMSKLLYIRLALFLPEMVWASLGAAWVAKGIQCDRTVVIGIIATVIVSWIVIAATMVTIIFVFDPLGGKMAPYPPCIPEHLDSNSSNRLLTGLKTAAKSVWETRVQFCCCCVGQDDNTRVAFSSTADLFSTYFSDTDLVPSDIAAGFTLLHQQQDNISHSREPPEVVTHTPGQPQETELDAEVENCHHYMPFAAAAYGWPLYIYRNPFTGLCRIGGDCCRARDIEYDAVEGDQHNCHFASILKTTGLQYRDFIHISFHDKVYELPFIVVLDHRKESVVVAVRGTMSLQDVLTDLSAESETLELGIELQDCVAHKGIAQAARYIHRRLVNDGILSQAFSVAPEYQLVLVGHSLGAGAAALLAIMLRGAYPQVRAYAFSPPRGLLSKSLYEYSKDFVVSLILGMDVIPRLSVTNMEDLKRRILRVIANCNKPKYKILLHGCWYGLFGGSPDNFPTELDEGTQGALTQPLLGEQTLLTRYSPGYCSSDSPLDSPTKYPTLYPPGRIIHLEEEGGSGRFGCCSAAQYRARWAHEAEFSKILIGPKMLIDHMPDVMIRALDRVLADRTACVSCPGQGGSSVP
Kind of data set: radiolabeled DAG hydrolysis assay, homogenates of transfected COS cells. Format: biochemical.

Substrate in data set [1]: CCCCC/C=C\C/C=C\C/C=C\C/C=C\CCCC(=O)O[C@@H](CO)COC(=O)CCCCCCCCCCCCCCCCC
Kind of data set: cells, lysate or membranes.

`CCCCCCCCCCC[C@@H](C[C@@H]1OC(=O)[C@H]1CCCCCC)OC(=O)[C@H](CC(C)C)NC=O` [THL, tetrahydrolipstatin] showed an IC50 against DAGLβ of 100 nM.

B1: DAGLβ (Mus musculus) (protein)
chain: T1 sequence (Q91WC9 1-669)
For the molecule B1, in data set [1], the Km amounted to 74.1 ± 4.9 µM.

B2: DAGLα (Homo sapiens) (protein)
chain: MPGIVVFRRRWSVGSDDLVLPAIFLFLLHTTWFVILSVVLFGLVYNPHEACSLNLVDHGRGYLGILLSCMIAEMAIIWLSMRGGILYTEPRDSMQYVLYVRLAILVIEFIYAIVGIVWLTQYYTSCNDLTAKNVTLGMVVCNWVVILSVCITVLCVFDPTGRTFVKLRATKRRQRNLRTYNLRHRLEEGQATSWSRRLKVFLCCTRTKDSQSDAYSEIAYLFAEFFRDLDIVPSDIIAGLVLLRQRQRAKRNAVLDEANNDILAFLSGMPVTRNTKYLDLKNSQEMLRYKEVCYYMLFALAAYGWPMYLMRKPACGLCQLARSCSCCLCPARPRFAPGVTIEEDNCCGCNAIAIRRHFLDENMTAVDIVYTSCHDAVYETPFYVAVDHDKKKVVISIRGTLSPKDALTDLTGDAERLPVEGHHGTWLGHKGMVLSAEYIKKKLEQEMVLSQAFGRDLGRGTKHYGLIVVGHSLGAGTAAILSFLLRPQYPTLKCFAYSPPGGLLSEDAMEYSKEFVTAVVLGKDLVPRIGLSQLEGFRRQLLDVLQRSTKPKWRIIVGATKCIPKSELPEEVEVTTLASTRLWTHPSDLTIALSASTPLYPPGRIIHVVHNHPAEQCCCCEQEEPTYFAIWGDNKAFNEVIISPAMLHEHLPYVVMEGLNKVLENYNKGKTALLSAAKVMVSPTEVDLTPELIFQQQPLPTGPPMPTGLALELPTADHRNSSVRSKSQSEMSLEGFSEGRLLSPVVAAAARQDPVELLLLSTQERLAAELQARRAPLATMESLSDTESLYSFDSRRSSGFRSIRGSPSLHAVLERDEGHLFYIDPAIPEENPSLSSRTELLAADSLSKHSQDTQPLEAALGSGGVTPERPPSAAANDEEEEVGGGGGGPASRGELALHNGRLGDSPSPQVLEFAEFIDSLFNLDSKSSSFQDLYCMVVPESPTSDYAEGPKSPSQQEILLRAQFEPNLVPKPPRLFAGSADPSSGISLSPSFPLSSSGELMDLTPTGLSSQECLAADKIRTSTPTGHGASPAKQDELVISAR
Regarding B2, the Km in data set [1] is 154.7 ± 19.1 µM.
